According to US20110091467A1 (CENTRE FOR ADDICTION AND MENTAL HEALTH, published 2011):

B2: [35S]-methionine-labelled D2[IL3-2] probe (peptide)
chain: EAARRAQELEMEMLSSTSPPERTRYSPIPPSHHQLTLPDPSHHGLHSTPDSPAKPEKNGHAKDHPKIAKIFEIQTMPNGKTRTSLKTMSRRKLSQQKEKKATQ
modifications: [35S]-methionine-labelled
notes: also called [35S]-D2[IL3-2]

Legend:
[1] = target: B2; assay: conclusion from the peptide competition in the in vitro binding assay (GST-DAT[NT1] with [35S]-D2[IL3-2])
Procedure: (§1) The beads were then washed 4-6 times with PBS containing 0.5% Triton X-100 and eluted with 10 mM glutathione elution buffer. Eluates were separated by SDS-PAGE and visualized by autoradiography.

[2] = target: T1, GST fused DAT[NT2] (A16-T43) (UniProt P08515 1-218 = GST); assay: in vitro binding assay: GST fusion on glutathione beads with the [35S]-D2[IL3-2] probe, autoradiography
T1 construct: also called GST-DAT[NT2]
T1 sequence (P08515 1-218, tags or fused parts left off): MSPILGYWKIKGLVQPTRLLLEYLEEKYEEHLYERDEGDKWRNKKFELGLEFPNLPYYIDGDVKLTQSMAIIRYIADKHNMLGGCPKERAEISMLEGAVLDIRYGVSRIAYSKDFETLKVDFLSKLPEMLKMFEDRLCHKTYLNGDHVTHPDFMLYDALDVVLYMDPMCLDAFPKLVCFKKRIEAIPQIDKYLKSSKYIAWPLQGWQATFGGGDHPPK
Procedure: as §1

[3] = target: T2, GST fused DAT[NT3] (K35-D68) (UniProt P08515 1-218 = GST); assay: as above
T2 construct: also called GST-DAT[NT3]
T2 sequence (P08515 1-218, tags or fused parts left off): as above
Procedure: as §1

[4] = target: T3, GST fused DAT[NT1] (M1-P26) (UniProt P08515 1-218 = GST); assay: in vitro binding assay, FIG. 1G
T3 construct: also called GST-DAT[NT1]
T3 sequence (P08515 1-218, tags or fused parts left off): as above
Procedure: as §1

B1: purified DAT[NT1-1] (M1-V15) peptide (peptide)
peptide: MSKSKCSVGLMSSVV
notes: also called DAT[NT1-1] peptide
binding result [1]: binds

B2
binding result [2]: no binding | binding result [3]: no binding | binding result [4]: binds
